Results published in PMC9253770, “The C-Terminal Domain of Y-Box Binding Protein 1 Exhibits Structure-Specific Binding to Poly(ADP-Ribose), Which Regulates PARP1 Activity”.

Target: YB-1 (Δ1-2) (UniProt P67809 1-230)
Test: fluorescence anisotropy; DNA binding similar to full-length; EC50 within 1100-3100 nM, exact value only in figure; 50 mM Tris-HCl pH 8.0, 40 mM NaCl, 1 mM DTT, 100 ug/ml BSA, 50 nM FAM-DNA, 25 C (anisotropy). PAR EMSA rows left out: PAR is a heterogeneous polymer without a defined nucleic acid sequence
Settings: protein: recombinant; label: 5'-FAM on strand 1; nicked 32-bp duplex, blunt ends; nick opposite strand 1 positions 15/16

YB-1 (Δ1-2), sequence (P67809 1-230, stated change not applied): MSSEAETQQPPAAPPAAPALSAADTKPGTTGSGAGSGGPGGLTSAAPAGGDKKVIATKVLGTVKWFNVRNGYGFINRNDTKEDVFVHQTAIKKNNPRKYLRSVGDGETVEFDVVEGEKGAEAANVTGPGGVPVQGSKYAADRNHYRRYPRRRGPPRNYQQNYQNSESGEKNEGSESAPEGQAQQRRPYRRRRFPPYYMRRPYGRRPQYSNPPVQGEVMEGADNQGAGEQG

B1: Nick (FAM-labeled nicked DNA duplex) (dsDNA)
DNA 1: CCGCTATTTCAACCCTTTGCAGTCCCAGAAGG
DNA 2: GGGTTGAAATAGCGG
DNA 3: CCTTCTGGGACTGCAAA
modifications: phosphate on the 17-mer (printed as 5'-p…)
binding result: binds
